Experimental data: patent US20020004214A1, “Method to detect modulators of histidine kinases” (priority 1999, published 2002)

What was measured:
[1] = biological target: T1, EspA cognate response regulator (UniProt Q5HJX7)
T1 sequence: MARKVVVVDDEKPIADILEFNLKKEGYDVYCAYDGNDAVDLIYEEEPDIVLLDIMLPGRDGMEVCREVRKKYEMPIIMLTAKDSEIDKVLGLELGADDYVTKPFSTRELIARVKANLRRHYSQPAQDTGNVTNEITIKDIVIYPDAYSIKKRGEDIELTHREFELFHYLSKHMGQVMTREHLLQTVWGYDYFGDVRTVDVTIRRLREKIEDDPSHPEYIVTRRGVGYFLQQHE

[2] = tested on: MalE-EspB fusion protein; assay: EspB autophosphorylation gel electrophoresis assay; format: biochemical, Staphylococcus aureus; settings: purified protein pretreated with 2 M or 0.5 M guanidine-HCl, then dialyzed; [γ-32P]ATP 30 minutes; vs protein not pretreated
Procedure: Enzyme autophosphorylation activity was assayed as described in Example 4 below. Samples containing equal amounts of purified MalE-EspB fusion that had either been treated or not with guanidine-HCl were incubated with [γ-^32P]ATP for 30 minutes, analyzed by polyacrylamide gel electrophoresis, and exposed to X-ray film. In FIG. 3 the bands show the autophosphorylated protein, and can be quantitated. Lanes 1 and 2 show the activity of purified protein samples that had not been pretreated with guanidine-HCl, whereas the protein samples inlanes 3 and 4 had been pretreated with 2 M and 0.5 M guanidine-HCl, respectively, and dialyzed afterwards against enzyme storage buffer. When the X-ray picture is greatly overexposed, the protein bands become also apparent on lanes 1 and 2. The experiment showes that pretreatment with guanidine-HCl activates MalE-EspB by approximately 40 to 100-fold, a likely consequence of denaturing and then refolding the purified MalE-EspB protein.
Volumes of 18.5 μl of compounds diluted in 6% DMSO or controls of 6% DMSO alone were mixed in a microcentrifuge tube with an equal volume of EspB reaction mixture (containing EspB at 0.58 mg/ml in a salt buffer of 328 mM Tris-HCl [pH 8.0], 225 mM KCl, 0.4 mM PMSF {phenylmethylsulfonyl fluoride}, 1.2 mM DTT, 0.2 mM EDTA, 9.3 mM MnCl2, and 10% glycerol). […]

MalE-EspB fusion protein
transphosphorylation of EspA by EspB without Ca++, [gamma-32P]ATP, SDS-PAGE and X-ray film [1]: this transphosphorylation requires the presence of Ca^++ whereas autophosphorylation of EspB does not (absence of the EspA band in lane 5) | transphosphorylation of EspA by EspB, [gamma-32P]ATP, SDS-PAGE and X-ray film [1]: EspA is unable to autophosphorylate (lane 3), but that it can be transphosphorylated by its cognate HPK EspB (lane 2)

Cl.N=C(N)N [guanidine-HCl, Guanidine-HCl]
activation of MalE-EspB autophosphorylation activity by pretreatment [2]: 40 to 100 fold
